Consider 9 variants from PMC5014551 (2016).

Sequences and labels used below:
B1: Bol1-Strep [S. cerevisiae] / dihydroxyacid dehydratase (Ilv3) [S. cerevisiae (endogenous in yeast mitochondria)] (parent complex)
chain 1: MFKRAMSTDGPVARTILKRLECGFPDYKNFAFGLYNDSHKHKGHAGVQGNVSAETHFRIEMVSKKFEGLKLPQRHRMVYSLLQDEMAQANGIHALQLSLKTPQEYESKAK
chain 2: not shown
B2: Bol1-Strep [S. cerevisiae] / Sdh2 [S. cerevisiae (endogenous in yeast mitochondria)] (parent complex)
chain 1: B1 chain 1
chain 2: TATTAAATHTPRLKTFKVYRWNPDEPSAKPHLQSYQVDLNDCGPMVLDALLKIKDEQDSTLTFRRSCREGICGSCAMNIGGRNTLACICKIDQNESKQLKIYPLPHMFIVKDLVPDLTNFYQQYKSIQPYLQRSSFPKDGTEVLQSIEDRKKLDGLYECILCACCSTSCPSYWWNQEQYLGPAVLMQAYRWLIDSRDQATKTRKAMLNNSMSLYRCHTIMNCTRTCPKGLNPGLAIAEIKKSLAFA
B3: Bol1-Strep [S. cerevisiae] / Isa2 [S. cerevisiae] (parent complex)
chain 1: B1 chain 1
chain 2: MQAKLLFTRLNFRRPSTTLRQFPLTCFLFHSKAFYSDLVTKEPLITPKRIINKTPGLNLSISERASNRLAEIYRNSKENLRISVESGGCHGFQYNLTLEPATKPDIKNDVKDKEFSDDLDDDDSKDIIYVLPEDKGRVIIDSKSLNILNNTTLTYTNELIGSSFKIINGSLKSSCGCGSSFDIEN
B4: Bol1-Strep [S. cerevisiae] / Aco1 [S. cerevisiae (endogenous in yeast mitochondria)] (parent complex)
chain 1: B1 chain 1
chain 2: ATVSNLTRDSKVNQNLLEDHSFINYKQNVETLDIVRKRLNRPFTYAEKILYGHLDDPHGQDIQRGVSYLKLRPDRVACQDATAQMAILQFMSAGLPQVAKPVTVHCDHLIQAQVGGEKDLKRAIDLNKEVYDFLASATAKYNMGFWKPGSGIIHQIVLENYAFPGALIIGTDSHTPNAGGLGQLAIGVGGADAVDVMAGRPWELKAPKILGVKLTGKMNGWTSPKDIILKLAGITTVKGGTGKIVEYFGDGVDTFSATGMGTICNMGAEIGATTSVFPFNKSMIEYLEATGRGKIADFAKLYHKDLLSADKDAEYDEVVEIDLNTLEPYINGPFTPDLATPVSKMKEVAVANNWPLDVRVGLIGSCTNSSYEDMSRSASIVKDAAAHGLKSKTIFTVTPGSEQIRATIERDGQLETFKEFGGIVLANACGPCIGQWDRRDIKKGDKNTIVSSYNRNFTSRNDGNPQTHAFVASPELVTAFAIAGDLRFNPLTDKLKDKDGNEFMLKPPHGDGLPQRGYDAGENTYQAPPADRSTVEVKVSPTSDRLQLLKPFKPWDGKDAKDMPILIKAVGKTTTDHISMAGPWLKYRGHLENISNNYMIGAINAENKKANCVKNVYTGEYKGVPDTARDYRDQGIKWVVIGDENFGEGSSREHAALEPRFLGGFAIITKSFARIHETNLKKQGLLPLNFKNPADYDKINPDDRIDILGLAELAPGKPVTMRVHPKNGKPWDAVLTHTFNDEQIEWFKYGSALNKIKADEKK
B5: Bol1-Strep [S. cerevisiae] / Lip5 [S. cerevisiae (endogenous in yeast mitochondria)] (parent complex)
chain 1: B1 chain 1
chain 2: SSTIRCGTSATRPIRSNALNTDSDNASVRVPVGNSTEVENATSQLTGTSGKRRKGNRKRITEFKDALNLGPSFADFVSGKASKMILDPLEKARQNTEEAKKLPRWLKVPIPKGTNYHKLKGDVKELGLSTVCEEARCPNIGECWGGKDKSKATATIMLLGDTCTRGCRFCSVKTNRTPSKPDPMEPENTAEAIKRWGLGYVVLTTVDRDDLVDGGANHLAETVRKIKQKAPNTLVETLSGDFRGDLKMVDIMAQCGLDVYAHNLETVESLTPHVRDRRATYRQSLSVLERAKATVPSLITKTSIMLGLGETDEQITQTLKDLRNIQCDVVTFGQYMRPTKRHMKVVEYVKPEKFDYWKERALEMGFLYCASGPLVRSSYKAGEAFIENVLKKRNMK
B6: Bol1-Strep [S. cerevisiae] / Lys4 [S. cerevisiae (endogenous in yeast mitochondria)] (parent complex)
chain 1: B1 chain 1
chain 2: LKGQNLTEKIVQSYAVNLPEGKVVHSGDYVSIKPAHCMSHDNSWPVALKFMGLGATKIKNPSQIVTTLDHDIQNKSEKNLTKYKNIENFAKKHHIDHYPAGRGIGHQIMIEEGYAFPLNMTVASDSHSNTYGGLGSLGTPIVRTDAAAIWATGQTWWQIPPVAQVELKGQLPQGVSGKDIIVALCGLFNNDQVLNHAIEFTGDSLNALPIDHRLTIANMTTEWGALSGLFPVDKTLIDWYKNRLQKLGTNNHPRINPKTIRALEEKAKIPKADKDAHYAKKLIIDLATLTHYVSGPNSVKVSNTVQDLSQQDIKINKAYLVSCTNSRLSDLQSAADVVCPTGDLNKVNKVAPGVEFYVAAASSEIEADARKSGAWEKLLKAGCIPLPSGCGPCIGLGAGLLEPGEVGISATNRNFKGRMGSKDALAYLASPAVVAASAVLGKISSPAEVLSTSEIPFSGVKTEIIENPVVEEEVNAQTEAPKQSVEILEGFPREFSGELVLCDADNINTDGIYPGKYTYQDDVPKEKMAQVCMENYDAEFRTKVHPGDIVVSGFNFGTGSSREQAATALLAKGINLVVSGSFGNIFSRNSINNALLTLEIPALIKKLREKYQGAPKELTRRTGWFLKWDVADAKVVVTEGSLDGPVILEQKVGELGKNLQEIIVKGGLEGWVKSQL
B7: Bol3-Strep [S. cerevisiae] / dihydroxyacid dehydratase (Ilv3) [S. cerevisiae (endogenous in yeast mitochondria)] (parent complex)
chain 1: MKLPQTMLRSISVKHVRWPRILTGSKLWYSTQMAMTPEEKMITDKLQQELEPEVCKVQDVSGGCGSMFAINITSKKFNGLSLIKQHQLVNRILRDDISRWHGLQLTTKKSTGKGPASS
chain 2: not shown
B8: Bol1-Strep [S. cerevisiae] / Bio2 [S. cerevisiae (endogenous in yeast mitochondria)] (parent complex)
chain 1: B1 chain 1
chain 2: TKYATNAAVKSTTASSEASTLGALQYALSLDEPSHSWTKSQLKEIYHTPLLELTHAAQLQHRKWHDPTKVQLCTLMNIKSGGCSEDCKYCAQSSRNDTGLKAEKMVKVDEVIKEAEEAKRNGSTRFCLGAAWRDMKGRKSAMKRIQEMVTKVNDMGLETCVTLGMVDQDQAKQLKDAGLTAYNHNIDTSREHYSKVITTRTYDDRLQTIKNVQESGIKACTGGILGLGESEDDHIGFIYTLSNMSPHPESLPINRLVAIKGTPMAEELADPKSKKLQFDEILRTIATARIVMPKAIIRLAAGRYTMKETEQFVCFMAGCNSIFTGKKMLTTMCNGWDEDKAMLAKWGLQPMEAFKYDRS
B9: Bol1-Strep [S. cerevisiae] / Aco2 [S. cerevisiae (endogenous in yeast mitochondria)] (parent complex)
chain 1: B1 chain 1
chain 2: ATHANMFPSVSKNFQTKVPPYAKLLTNLDKIKQITNNAPLTLAEKILYSHLCDPEESITSSDLSTIRGNKYLKLNPDRVAMQDASAQMALLQFMTTGLNQTSVPASIHCDHLIVGKDGETKDLPSSIATNQEVFDFLESCAKRYGIQFWGPGSGIIHQIVLENFSAPGLMMLGTDSHTPNAGGLGAIAIGVGGADAVDALTGTPWELKAPKILGVKLTGKLNGWSTPKDVITKLAGLLTVRGGTGYIVEYFGEGVSTLSCTGMATICNMGAEIGATTSTFPYQEAHKRYLQATNRAEVAEAADVALNKFNFLRADKDAQYDKVIEIDLSAIEPHVNGPFTPDLSTPISQYAEKSLKENWPQKVSAGLIGSCTNSSYQDMSRVVDLVKQASKAGLKPRIPFFVTPGSEQIRATLERDGIIDIFQENGAKVLANACGPCIGQWNREDVSKTSKETNTIFTSFNRNFRARNDGNRNTMNFLTSPEIVTAMSYSGDAQFNPLTDSIKLPNGKDFKFQPPKGDELPKRGFEHGRDKFYPEMDPKPDSNVEIKVDPNSDRLQLLEPFKPWNGKELKTNVLLKVEGKCTTDHISAAGVWLKYKGHLENISYNTLIGAQNKETGEVNKAYDLDGTEYDIPGLMMKWKSDGRPWTVIAEHNYGEGSAREHAALSPRFLGGEILLVKSFARIHETNLKKQGVLPLTFANESDYDKISSGDVLETLNLVDMIAKDGNNGGEIDVKITKPNGESFTIKAKHTMSKDQIDFFKAGSAINYIGNIRRNE

The first experiment covers variants of B1. Put plainly: Strep-tag affinity purification with MS proteomics (spectral counts); parent: 4; read off a plot.
Regarding chain 1 H93C, the screen value is about 0%.

In another experiment the parent is B2. As to the kind of experiment: Strep-tag affinity purification with MS proteomics (spectral counts); parent: 0; read off a plot.
As for chain 1 MFKRAMSTDGPVARTILKRLECGFPDYKNFAFGLYNDSHKHKGHAGVQGNVSAETHFRIEMVSKKFEGLKLPQRHRMVYSLLQDEMAQANGICALQLSLKTPQEYESKAK [chain 1 H93C], the screen value was about 0%.

In another experiment the parent is B3. The description is as above.
With chain 1 MFKRAMSTDGPVARTILKRLECGFPDYKNFAFGLYNDSHKHKGHAGVQGNVSAETHFRIEMVSKKFEGLKLPQRHRMVYSLLQDEMAQANGICALQLSLKTPQEYESKAK [chain 1 H93C], the screen value was about 0%.

In a further experiment the parent is B4. Put plainly: Strep-tag affinity purification with MS proteomics (spectral counts); parent: 3.5; read off a plot.
With chain 1 MFKRAMSTDGPVARTILKRLECGFPDYKNFAFGLYNDSHKHKGHAGVQGNVSAETHFRIEMVSKKFEGLKLPQRHRMVYSLLQDEMAQANGICALQLSLKTPQEYESKAK [chain 1 H93C], the screen value was about 1.5%.

Variants of B5 are the subject of the next experiment. As to the kind of experiment: Strep-tag affinity purification with MS proteomics (spectral counts); parent: 0; read off a plot.
Turning to chain 1 MFKRAMSTDGPVARTILKRLECGFPDYKNFAFGLYNDSHKHKGHAGVQGNVSAETHFRIEMVSKKFEGLKLPQRHRMVYSLLQDEMAQANGICALQLSLKTPQEYESKAK [chain 1 H93C], the screen value was about 0%.

The variants in another experiment derive from B6. The experiment is described as above.
Regarding chain 1 MFKRAMSTDGPVARTILKRLECGFPDYKNFAFGLYNDSHKHKGHAGVQGNVSAETHFRIEMVSKKFEGLKLPQRHRMVYSLLQDEMAQANGICALQLSLKTPQEYESKAK [chain 1 H93C], the screen value was about 0%.

A further experiment covers variants of B7. Put plainly: Strep-tag affinity purification with MS proteomics (spectral counts); parent: 16; read off a plot.
For chain 1 H101C, the screen value is about 45%.

Variants of B8 are the subject of a further experiment. As to the kind of experiment: Strep-tag affinity purification with MS proteomics (spectral counts); parent: 0; read off a plot.
In the case of chain 1 MFKRAMSTDGPVARTILKRLECGFPDYKNFAFGLYNDSHKHKGHAGVQGNVSAETHFRIEMVSKKFEGLKLPQRHRMVYSLLQDEMAQANGICALQLSLKTPQEYESKAK [chain 1 H93C], the screen value was about 0%.

In another experiment the parent is B9. Described as above.
Take chain 1 MFKRAMSTDGPVARTILKRLECGFPDYKNFAFGLYNDSHKHKGHAGVQGNVSAETHFRIEMVSKKFEGLKLPQRHRMVYSLLQDEMAQANGICALQLSLKTPQEYESKAK [chain 1 H93C]: the screen value was about 0%.
